According to patent US20210205413A1 (Nektar Therapeutics, priority 2018, published 2021):

Experiments:
Tcon proliferation = assay: In vitro Treg suppression assay (splenic Tregs of treated mice co-cultured with Tcon); assay type: cell-based, C57BL/6 mice
Description: The objective of this study is to assess the inhibitory function of regulatory T cells. […] Treg and Tcon are co-cultured at a range of ratios from 1:2 to 1:512 for three days. Cellular proliferation is evaluated by ^3H-thymidine incorporation over the final 16 hours of the assay, and the % of proliferating cells relative to plate controls is calculated.
Single-cell isolations are prepared for each spleen, and the resultant splenocyte mixtures are pooled for each dose group at each timepoint. A portion of the pooled sample equivalent to one spleen is aliquoted for immune cell profiling. The remaining splenocyte preparation is utilized for isolation of regulatory T cells (Tregs). […]
In vitro suppression assays are carried out in RPMI 1640 medium supplemented with 10% fetal bovine serum, 2 mM L-glutamine, 1 mM sodium pyruvate, 0.5 μM β-mercaptoethanol, and 1× antibiotic/antimycotic (100 units/mL penicillin, 100 μg/mL streptomycin and 250 ng/mL amphotericin B). […] The suppressive capacity of Tregs is assessed by the addition of Tregs to Tcon at different ratios (Treg:Tcon ratios of […] to 1:512). […] After washing cells free from unincorporated [3H]-thymidine, thymidine uptake is measured as counts-per-minute (CPM) using a microplate scintillation counter (TopCount NXT, Perkin Elmer). […]

MRL/MpJ-Faslpr mice = assay: Mouse model of systemic lupus erythematosus (SLE); assay type: in vivo
Description: The MRL/MpJ-Faslpr mouse model develops an autoimmune disease that reflects pathologies of human SLE, including lymph node enlargement, increased IgG levels, antinuclear antibody production, proteinuria, and kidney failure caused by inflammation of the glomeruli. […] On dosing days, a suitable quantity of test article is withdrawn and diluted with vehicle to arrive at the desired dosing concentration (0.03 mg/kg dose and 0.3 mg/kg dose); dose volume was 5 mL/kg. Animals used for the study are MRL/MpJ-Faslpr mice and MRL/MpJ naive, female mice, aged from 6-8 weeks. Animals are assigned to treatment groups by randomization. Treatment groups are described in Table 13 below. 45 MRL/MpJ-Faslpr mice are randomized into 3 groups (15 each for Groups 2-4) based on body weight and level of protein content in urine before the commencement of the experiment. Animals in Groups 2-4 receive vehicle or test article delivered subcutaneously as described in Table 6. Group 1-MRL/MpJ mice receive the vehicle as a negative control. Three (3) days after the first dose administration on Week 8, 3 mice from Groups 2-4 are humanely sacrificed and blood samples were collected and processed. Body weights are measured twice a week from the commencement of the study and continued throughout. Skin lesion pictures were taken when first observed and then at one week intervals. Urine is obtained the day before dosing (at baseline) and then collected weekly thereafter. Protein levels in the urine are measured using a Siemens Clinitek Status Analyzer. On sacrifice day (3 days after the last dose at the end of Week 20), all mice are anesthetized by intraperitoneal injection of chloral hydrate (50 mg/kg). Blood samples are collected, and centrifuged at 10000 r/min for 10 min to obtain serum samples. The serum is stored at −80° C. until clinical biochemistry testing. Serum samples (100 μl) are analyzed for anti-dsDNA level by ELISA (Mouse Anti-dsDNA IgG-specific ELISA Kit, Alpha Diagnostic International, Cat. No. 5120) and the serum tested for BUN concentration using a Hitachi 7020 Automatic Biochemistry Analyzer. For lymphocyte analysis, blood samples are collected in EDTA-K tubes and tested for CD3/CD4/CD8/Treg/NK/B cell % by flow cytometry. […] This study further elucidates the effect of RUR-IL-2-induced Tregs on control of the physiological immune response and disease progression in a representative animal model of SLE.

cGVHD model = assay: cGVHD model, repeat administration; assay type: in vivo
Tregs in human PBMC = assay: pSTAT5 induction in lymphocyte populations of human PBMC (flow cytometry, CyToF); assay type: cell-based; settings: in vitro
Description: Impaired IL-2 production and regulatory T cell dysfunctions have been implicated as an immunological mechanism in multiple autoimmune diseases. While low-dose IL-2 can be used to stimulate Tregs for clinical benefit, poor pharmacokinetics necessitates daily delivery, adverse events are dose-limiting, and Treg increases are modest and short-lived. […] The affinity to the IL-2 receptor is assessed by surface plasmon resonance. Activity in human PBMC can be measured by pSTAT5 induction in multiple lymphocyte populations using flow cytometry and time-of-flight mass cytometry (CyToF). In vivo activity after subcutaneous administration in C57BL/6 mice or cynomolgus monkey is measured by changes in lymphocyte numbers and activation by flow cytometry. Ex vivo Treg function is determined by the inhibition of Tcon proliferation by isolated splenic Treg. Efficacy is assessed in a model of systemic lupus erythematosus (SLE) using MRL/MpJ-Faslpr mice. […] In mice, a single administration leads to sustained Treg mobilization for 7-10 days in blood and spleen without Tcon activation, an effect concomitant with induction of Treg activation markers and increased ex vivo suppressive capacity. […] Finally, an RUR20kD-IL-2 composition is efficacious in mouse models of SLE.

[1] = Single dose toxicokinetics in rats (SC, LS-2016-004); assay type: in vivo, Rat; settings: mean of three rats per time point
[2] = repeat administration over 12 weeks

Substance: (1,3-bis(methoxypoly(ethylene glycol)10kDcarbamoyl)-2-propanoxy)-4-butanamide)interleukin-2) [RUR20kD-IL-2]
- duration of increased Treg suppressive activity (Tcon proliferation; Treg:Tcon ratio 1:2): maintained for four days
- suppressive capacity of Tregs isolated after administration (Tcon proliferation; Tregs isolated 1 and 4 days post dose, vs vehicle): greatly increased suppressive capacity
- protein levels in urine (biomarker of kidney damage) (MRL/MpJ-Faslpr mice; 0.3 mg/kg s.c. twice weekly, week 8 to week 20): nearly the same levels as observed in normal mice
- Treg elevation (MRL/MpJ-Faslpr mice; [2]): sustains Treg elevation
- blood urea nitrogen (MRL/MpJ-Faslpr mice; [2]): reduces blood urea nitrogen
- urine protein levels and kidney histopathology (MRL/MpJ-Faslpr mice; [2]): returns urine protein levels and kidney histopathology to normal
- Tregs and germinal center B cells in spleen (cGVHD model): increases Tregs and decreases germinal center B cells in spleen
- lung dysfunction (cGVHD model): reverses lung dysfunction
- STAT5 phosphorylation in Tregs relative to other lymphocyte subsets (Tregs in human PBMC): increased STAT5 phosphorylation relative to other lymphocyte subsets
- AUCinf ([1]; single SC 0.01 mg/kg): 5230 ng·h/mL
- AUClast ([1]; single SC 0.01 mg/kg): 5210 ng·h/mL
- Cmax ([1]; single SC 0.01 mg/kg): 60 ng/mL
- Half-life ([1]; single SC 0.01 mg/kg): 33.8 h
- MRTinf ([1]; single SC 0.01 mg/kg): 63.1 h
- tmax ([1]; single SC 0.01 mg/kg): 24 h
- AUCinf ([1]; single SC 0.1 mg/kg): 73000 ng·h/mL
- AUClast ([1]; single SC 0.1 mg/kg): 71100 ng·h/mL
- Cmax ([1]; single SC 0.1 mg/kg): 640 ng/mL
- Half-life ([1]; single SC 0.1 mg/kg): 58.6 h
- MRTinf ([1]; single SC 0.1 mg/kg): 97.9 h
- tmax ([1]; single SC 0.1 mg/kg): 24 h
- AUCinf ([1]; single SC 1.5 mg/kg): 678000 ng·h/mL
- AUClast ([1]; single SC 1.5 mg/kg): 672000 ng·h/mL
- Cmax ([1]; single SC 1.5 mg/kg): 9300 ng/mL
- Half-life ([1]; single SC 1.5 mg/kg): 47.3 h
- MRTinf ([1]; single SC 1.5 mg/kg): 73.7 h
- tmax ([1]; single SC 1.5 mg/kg): 48 h
